Test results published in patent US20160333072A1.

How the values were obtained:
[1] = target: 4-1BB (CD137) on human MART-1 reactive T cell clones (TIL 209) (human) (UniProt Q07011); assay: cell-based or functional assay
[2] = target: human SLAMF6 (NTB-A) on human tumor infiltrating lymphocytes / T cells (human) (UniProt Q96DU3); assay: cell-based or functional assay
Sequence of human SLAMF6 (NTB-A) on human tumor infiltrating lymphocytes / T cells (human) (Q96DU3 22-332): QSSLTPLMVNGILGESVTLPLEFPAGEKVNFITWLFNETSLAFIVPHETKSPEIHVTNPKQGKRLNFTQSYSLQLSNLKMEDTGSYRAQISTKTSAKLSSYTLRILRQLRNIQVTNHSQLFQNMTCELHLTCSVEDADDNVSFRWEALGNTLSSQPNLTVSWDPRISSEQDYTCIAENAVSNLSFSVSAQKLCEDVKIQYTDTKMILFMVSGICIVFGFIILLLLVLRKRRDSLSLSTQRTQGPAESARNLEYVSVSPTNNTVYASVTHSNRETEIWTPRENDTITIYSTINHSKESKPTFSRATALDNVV

Sequence of seSLAMF6 (SEQ ID NO: 3; Leu 28-Lys 225 of Q96DU3 fused with a polyhistidine tag at the C-terminus) (Q96DU3 other isoform, or with tags, fused parts or gaps limits assumed): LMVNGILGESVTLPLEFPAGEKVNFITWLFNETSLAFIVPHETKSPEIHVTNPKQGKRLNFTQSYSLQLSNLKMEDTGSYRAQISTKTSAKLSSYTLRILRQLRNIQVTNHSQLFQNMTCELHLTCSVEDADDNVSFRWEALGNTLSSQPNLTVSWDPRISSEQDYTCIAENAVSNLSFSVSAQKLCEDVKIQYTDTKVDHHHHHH
Sequence of 4-1BB (CD137) on human MART-1 reactive T cell clones (TIL 209) (human) (Q07011 24-255 limits assumed): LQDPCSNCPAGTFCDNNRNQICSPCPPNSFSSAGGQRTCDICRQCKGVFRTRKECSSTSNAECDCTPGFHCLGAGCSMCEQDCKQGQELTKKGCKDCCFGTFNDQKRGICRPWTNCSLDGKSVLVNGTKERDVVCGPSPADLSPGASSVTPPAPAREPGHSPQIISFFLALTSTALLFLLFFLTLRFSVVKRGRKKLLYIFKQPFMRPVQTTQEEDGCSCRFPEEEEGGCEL

IFNγ secretion of TIL 209 co-cultured with mel624/4-1BBL in CM (mel624/moc: 4,120) [1]	IFNγ secretion of TIL 209 co-cultured with mel624/4-1BBL with BSA (mel624/moc: 3,160) [1]	CD107a surface expression (lytic degranulation) of human TILs 209 after REP with seSLAMF6 50 µg/ml, co-culture with 526mel [2]	Substance	ratio of cell death and apoptosis (PI / Annexin-V, flow cytometry) of melanoma-activated TILs 209 after IL-2 withdrawal, seSLAMF6 10 µg/ml [2]	ratio of cell death on Day 7 (PI / annexin-V), TILs expanded by REP-IL-2, then seSLAMF6 50 µg/ml [2]	ratio of cell death on Day 7 (PI / annexin-V), TILs expanded by REP-seSLAMF6, then seSLAMF6 50 µg/ml [2]
8600 pg/mL	10500 pg/mL		4-1BBL expressed on transfected 624mel melanoma cells (mel624/4-1BBL) (from UniProt P41273 1-254) (ligand)			
		2 fold	seSLAMF6 (SEQ ID NO: 3; Leu 28-Lys 225 of Q96DU3 fused with a polyhistidine tag at the C-terminus) (from UniProt Q96DU3 28-225) (receptor)	4%	7 to 11%	7 to 11%
